Results reported in paper PMC3268818.

Target: BclXL_FL, full-length human BclXL (residues 1–233) (human), Q07817
Assay: ITC

Chain of BclXL_FL, full-length human BclXL (residues 1–233) (human), Q07817 (Q07817 whole entry, the tested form may be a part): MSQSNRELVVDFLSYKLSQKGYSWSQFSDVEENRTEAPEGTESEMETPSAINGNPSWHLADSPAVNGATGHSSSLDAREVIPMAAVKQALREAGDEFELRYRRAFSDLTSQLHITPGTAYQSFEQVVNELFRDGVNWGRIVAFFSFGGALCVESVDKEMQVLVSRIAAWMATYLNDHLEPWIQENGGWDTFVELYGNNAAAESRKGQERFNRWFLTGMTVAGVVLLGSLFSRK

Binder: DIIRNIARHLAQVGDSMDRS (modifications not checked) [Bid_BH3 peptide (20-mer spanning the BH3 domain of human Bid)]
- Kd: 9.97 µM
- dH: -78.4 kJ/mol
